Source: article PMC6032869 (Allergy, 2018)

Experiments:
[1] = molecular target: T1, Aln g 1, Bet v 1-related allergen from alder (Alnus glutinosa, UniProt P38948); experiment: ELISA; inhibition ELISA: plate-bound allergen (1 ug/mL) pre-incubated with 20 ug/mL H3-1 or control ScFv, then sera of birch pollen-allergic patients diluted 1:5; bound IgE detected; % reduction against control ScFv; conditions: both partners purified
T1 construct: Aln g 1, alder pollen allergen, Swissprot P38948; source: recombinant; materials described in Data S1
Target sequence in this assay (P38948 whole entry, looked up): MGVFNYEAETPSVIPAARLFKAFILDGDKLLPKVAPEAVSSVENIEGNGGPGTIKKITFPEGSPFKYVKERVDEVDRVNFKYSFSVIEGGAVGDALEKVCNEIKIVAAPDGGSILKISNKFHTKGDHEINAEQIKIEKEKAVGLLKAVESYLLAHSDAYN

[2] = molecular target: T2, recombinant Bet v 1, major birch pollen allergen (Betula pendula (B. verrucosa), UniProt P15494); experiment: as above; conditions: both partners purified
T2 construct: Bet v 1, major birch pollen allergen, Swissprot P15494; also called rBet v 1; source: recombinant; materials described in Data S1

[3] = molecular target: T3, Mal d 1, Bet v 1-related allergen from apple (Malus domestica, UniProt Q9SYW3); experiment: as above; conditions: both partners purified
T3 construct: Mal d 1, apple allergen, Swissprot Q9SYW3; source: recombinant; materials described in Data S1

[4] = molecular target: T4, Cor a 1, Bet v 1-related allergen from hazel (Corylus avellana, UniProt Q08407); experiment: as above; conditions: both partners purified
T4 construct: Cor a 1, hazel allergen, Swissprot Q08407; source: recombinant; materials described in Data S1
Target sequence in this assay (Q08407 whole entry, looked up): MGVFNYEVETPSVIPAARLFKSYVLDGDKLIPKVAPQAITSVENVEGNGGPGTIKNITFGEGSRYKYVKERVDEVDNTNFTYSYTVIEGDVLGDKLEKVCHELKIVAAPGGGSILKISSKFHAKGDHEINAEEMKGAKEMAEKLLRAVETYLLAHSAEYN

bovine serum albumin = molecular target: T5, bovine serum albumin (Bos taurus, UniProt P02769); experiment: ELISA; allergens, fragments, peptides or BSA coated at 4 ug/mL in 1xPBS; blocked with 1xPBS/3% BSA; 1 ug/mL H3-1 added; bound ScFv traced with anti-E Tag antibody; conditions: both partners purified
T5 construct: bovine serum albumin, control protein; also called BSA

[5] = molecular target: T6, synthetic Bet v 1-derived peptide 5 (aa 130-160) (Betula pendula, UniProt P15494); experiment: as above; conditions: both partners purified
T6 construct: Bet v 1, birch, Swissprot P15494, C-terminal peptide aa 130-160; also called C-terminal peptide 5; source: synthetic peptide
T6 chain: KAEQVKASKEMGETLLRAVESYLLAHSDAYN

[6] = molecular target: T2, recombinant Bet v 1, major birch pollen …; experiment: cell-based or functional assay
[7] = molecular target: T1, Aln g 1, Bet v 1-related allergen from …; experiment: ELISA; inhibition ELISA: plate-bound allergen (1 ug/mL) pre-incubated with 20 ug/mL H3-1 or control ScFv, then sera of birch pollen-allergic patients diluted 1:5; bound IgE detected; % reduction against control ScFv; conditions: both partners purified; remark: listed apart in the source
Target sequence in this assay (P38948 whole entry, looked up): as the sequence (P38948 whole entry, looked up) above

[8] = molecular target: T3, Mal d 1, Bet v 1-related allergen from …; experiment: as above; conditions: both partners purified; remark: listed apart in the source
[9] = molecular target: T4, Cor a 1, Bet v 1-related allergen from …; experiment: as above; conditions: both partners purified; remark: listed apart in the source
Target sequence in this assay (Q08407 whole entry, looked up): as the sequence (Q08407 whole entry, looked up) above

[10] = molecular target: T1, Aln g 1, Bet v 1-related allergen from …; experiment: SPR; Biacore 2000, 25°C; allergens amine-coupled to CM5 chip; reference cell BSA; H3-1 in HBS-EP pH 7.4 injected in twofold increasing concentrations at 30 uL/min; 1:1 interaction model; conditions: both partners purified
[11] = molecular target: T2, recombinant Bet v 1, major birch pollen …; experiment: as above; conditions: both partners purified
[12] = molecular target: T3, Mal d 1, Bet v 1-related allergen from …; experiment: as above; conditions: both partners purified
[13] = molecular target: T4, Cor a 1, Bet v 1-related allergen from …; experiment: as above; conditions: both partners purified

T3 sequence (Q9SYW3 entry or part of it): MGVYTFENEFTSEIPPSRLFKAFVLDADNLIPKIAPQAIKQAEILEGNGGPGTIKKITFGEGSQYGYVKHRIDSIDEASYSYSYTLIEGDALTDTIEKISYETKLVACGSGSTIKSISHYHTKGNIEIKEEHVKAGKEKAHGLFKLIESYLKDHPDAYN
T5 sequence (P02769 25-607): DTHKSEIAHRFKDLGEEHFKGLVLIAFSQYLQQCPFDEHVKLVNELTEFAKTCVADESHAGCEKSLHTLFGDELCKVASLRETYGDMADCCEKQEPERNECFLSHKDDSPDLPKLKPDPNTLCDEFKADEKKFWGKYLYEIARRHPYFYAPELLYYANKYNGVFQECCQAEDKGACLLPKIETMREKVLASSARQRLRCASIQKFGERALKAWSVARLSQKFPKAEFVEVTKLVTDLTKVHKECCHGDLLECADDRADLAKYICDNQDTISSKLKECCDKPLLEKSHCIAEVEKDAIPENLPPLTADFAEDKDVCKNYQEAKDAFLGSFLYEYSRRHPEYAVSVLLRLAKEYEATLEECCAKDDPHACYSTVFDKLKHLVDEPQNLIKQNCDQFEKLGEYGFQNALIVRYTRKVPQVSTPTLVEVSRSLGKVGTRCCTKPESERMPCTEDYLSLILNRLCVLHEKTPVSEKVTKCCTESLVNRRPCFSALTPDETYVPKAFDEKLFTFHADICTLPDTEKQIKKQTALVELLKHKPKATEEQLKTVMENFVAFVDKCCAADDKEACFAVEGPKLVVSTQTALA

B1: Bet v 1-specific IgG-derived ScFv H3-1 (scFv, V domains shown)
VH: QVQLVQSGAEVKKPGSSVKVSCKASGGTFSSYAISWVRQAPGQGLEWMGRIIPILGIVNYAQKFQGRVTITADKSTSTAYMELSSLRSEDTAVYYCAREPLGYCSGGSCYPLHNGMDVWGQGTTVTVSS
VL: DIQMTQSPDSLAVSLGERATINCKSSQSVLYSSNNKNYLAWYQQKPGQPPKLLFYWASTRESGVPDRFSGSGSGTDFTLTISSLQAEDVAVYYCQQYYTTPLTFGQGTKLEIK
notes: VH of H3-1 (H3-1_HV); (Gly4Ser)3 linker; V kappa of H3-1 (H3-1_KV); Cloned in phagemid pCANTAB 5E; The E tag is named for the direct ELISA (detection with anti-E Tag antibody); A form with a C-terminal His tag was also constructed; also called ScFv (clone H3-1); H3-1 ScFv; source: also tested as soluble ScFv after conversion of phage clones; not shown: E tag, C-terminal, kept
% inhibition of IgE binding, patient 1 [1]: 8.2%
% inhibition of IgE binding, patient 7 [1]: 6.3%
% inhibition of IgE binding, patient 9 [1]: 15.3%
% inhibition of IgE binding, patient 11 [1]: 22.5%
% inhibition of IgE binding, patient 12 [1]: 14.5%
% inhibition of IgE binding, patient 13 [1]: 11.4%
% inhibition of IgE binding, patient 16 [1]: 16.3%
% inhibition of IgE binding, patient 17 [1]: 25%
% inhibition of IgE binding, patient 19 [1]: 16.5%
% inhibition of IgE binding, patient 20 [1]: 6.9%
% inhibition of IgE binding, patient 21 [1]: 13.4%
% inhibition of IgE binding, patient 22 [1]: 37.1%
% inhibition of IgE binding, patient 23 [1]: 6.2%
% inhibition of IgE binding, patient 24 [1]: 12.9%
% inhibition of IgE binding, patient 25 [1]: 17.5%
% inhibition of IgE binding, patient 26 [1]: 23.7%
% inhibition of IgE binding, patient 27 [1]: 26.1%
% inhibition of IgE binding, patient 28 [1]: 26.1%
% inhibition of IgE binding, patient 30 [1]: 10.7%
mean % inhibition of patients' IgE binding [1]: 13.2%
% inhibition of IgE binding, patient 1 [2]: 60.9%
% inhibition of IgE binding, patient 5 [2]: 27.6%
% inhibition of IgE binding, patient 7 [2]: 42.2%
% inhibition of IgE binding, patient 9 [2]: 52.8%
% inhibition of IgE binding, patient 10 [2]: 41.7%
% inhibition of IgE binding, patient 11 [2]: 51.3%
% inhibition of IgE binding, patient 12 [2]: 61.4%
% inhibition of IgE binding, patient 13 [2]: 50.5%
% inhibition of IgE binding, patient 16 [2]: 49.2%
% inhibition of IgE binding, patient 17 [2]: 51%
% inhibition of IgE binding, patient 18 [2]: 57.4%
% inhibition of IgE binding, patient 19 [2]: 54.6%
% inhibition of IgE binding, patient 20 [2]: 15.8%
% inhibition of IgE binding, patient 21 [2]: 44.9%
% inhibition of IgE binding, patient 22 [2]: 62.9%
% inhibition of IgE binding, patient 23 [2]: 47.3%
% inhibition of IgE binding, patient 24 [2]: 44.3%
% inhibition of IgE binding, patient 25 [2]: 62.9%
% inhibition of IgE binding, patient 26 [2]: 50.6%
% inhibition of IgE binding, patient 27 [2]: 62.1%
% inhibition of IgE binding, patient 29 [2]: 38.8%
% inhibition of IgE binding, patient 30 [2]: 56.8%
mean % inhibition of patients' IgE binding [2]: 45%
% inhibition of IgE binding, patient 1 [3]: 8.6%
% inhibition of IgE binding, patient 5 [3]: 3.6%
% inhibition of IgE binding, patient 9 [3]: 10.9%
% inhibition of IgE binding, patient 10 [3]: 10.5%
% inhibition of IgE binding, patient 11 [3]: 19.1%
% inhibition of IgE binding, patient 12 [3]: 22.4%
% inhibition of IgE binding, patient 13 [3]: 27.4%
% inhibition of IgE binding, patient 16 [3]: 2.3%
% inhibition of IgE binding, patient 17 [3]: 40.5%
% inhibition of IgE binding, patient 18 [3]: 17.1%
% inhibition of IgE binding, patient 19 [3]: 15.3%
% inhibition of IgE binding, patient 20 [3]: 16.5%
% inhibition of IgE binding, patient 21 [3]: 11.9%
% inhibition of IgE binding, patient 22 [3]: 26.3%
% inhibition of IgE binding, patient 23 [3]: 3%
% inhibition of IgE binding, patient 24 [3]: 19.3%
% inhibition of IgE binding, patient 25 [3]: 17.9%
% inhibition of IgE binding, patient 26 [3]: 19.7%
% inhibition of IgE binding, patient 27 [3]: 27.4%
% inhibition of IgE binding, patient 28 [3]: 8.2%
% inhibition of IgE binding, patient 29 [3]: 22.5%
mean % inhibition of patients' IgE binding [3]: 16.1%
% inhibition of IgE binding, patient 1 [4]: 32.7%
% inhibition of IgE binding, patient 5 [4]: 29%
% inhibition of IgE binding, patient 7 [4]: 19%
% inhibition of IgE binding, patient 9 [4]: 48.9%
% inhibition of IgE binding, patient 10 [4]: 8.6%
% inhibition of IgE binding, patient 12 [4]: 44.9%
% inhibition of IgE binding, patient 13 [4]: 35%
% inhibition of IgE binding, patient 16 [4]: 18.4%
% inhibition of IgE binding, patient 17 [4]: 43%
% inhibition of IgE binding, patient 18 [4]: 40.9%
% inhibition of IgE binding, patient 19 [4]: 33.6%
% inhibition of IgE binding, patient 20 [4]: 33.9%
% inhibition of IgE binding, patient 21 [4]: 6%
% inhibition of IgE binding, patient 22 [4]: 53.7%
% inhibition of IgE binding, patient 23 [4]: 21.1%
% inhibition of IgE binding, patient 24 [4]: 36%
% inhibition of IgE binding, patient 25 [4]: 57.6%
% inhibition of IgE binding, patient 26 [4]: 22%
% inhibition of IgE binding, patient 27 [4]: 31.2%
% inhibition of IgE binding, patient 28 [4]: 45.1%
% inhibition of IgE binding, patient 29 [4]: 39.6%
% inhibition of IgE binding, patient 30 [4]: 29.5%
mean % inhibition of patients' IgE binding [4]: 29.1%
binding result (bovine serum albumin): no binding (tested: 1 μg/mL H3-1)
binding result [5]: binds
Bet v 1-induced basophil activation (CD203c upregulation), blood of patient #12; Bet v 1 pre-incubated with H3-1 against control ScFv [6]: ~5 fold
Bet v 1-induced basophil activation (CD203c upregulation), blood of patient #14; Bet v 1 pre-incubated with H3-1 against control ScFv; augmentation, not reduction [6]: ~5 fold
Bet v 1-induced basophil activation (CD203c upregulation), blood of patient #22; Bet v 1 pre-incubated with H3-1 against control ScFv [6]: ~25 fold
Bet v 1-induced basophil activation (CD203c upregulation), blood of patient #26; Bet v 1 pre-incubated with H3-1 against control ScFv [6]: ~5 fold
mean % inhibition of patients' IgE binding [7]: 11.9%
mean % inhibition of patients' IgE binding [8]: 13.5%
mean % inhibition of patients' IgE binding [9]: 24.3%
Kd [10]: 2.96 nM
koff [10]: 0.00112 s⁻¹
kon [10]: 378000 M⁻¹ s⁻¹
Kd [11]: 0.622 nM
koff [11]: 0.00022 s⁻¹
kon [11]: 353000 M⁻¹ s⁻¹
Kd [12]: 2.57 nM
koff [12]: 0.000145 s⁻¹
kon [12]: 56400 M⁻¹ s⁻¹
Kd [13]: 6.83 nM
koff [13]: 0.000299 s⁻¹
kon [13]: 43800 M⁻¹ s⁻¹
